Test results reported in PMC6825360, “Chaetomella raphigera β-glucosidase D2-BGL has intriguing structural features and a high substrate affinity that renders it an efficient cellulase supplement for lignocellulosic biomass hydrolysis” (Biotechnology for Biofuels, 2019).

Experiments:
D2-BGL [1] = target: D2-BGL (Chaetomella raphigera, UniProt A0A068FT77, INS255S/N255I, form not given); test: cellobiase assay, glucose release, crude secreted enzyme; format: biochemical; settings: crude enzyme from P. pastoris culture; mutant N255* (N255 replaced by two residues I-S); wild type measured beside it 1.45 mM
D2-BGL [2] = target: T1, D2-BGL (Chaetomella raphigera, UniProt A0A068FT77); test: inhibition of pNPG hydrolysis at […] glucose, absorbance of pNP at […] nm, non-linear fit; format: biochemical; settings: read-out: Ki glucose; substrate pNPG; pH 5 (50 mM sodium acetate), 55 °C; product inhibition
T1 construct: secreted recombinant from Pichia pastoris SMD1168 (pGAPZalphaC), His-tagged (strain #5 has an extra N-terminal 6-His), IMAC purified, N-hyperglycosylated, smear 95-180 kDa; TIM barrel 1-307, alpha/beta sandwich 319-521, FnIII 573-712
T1 sequence (A0A068FT77 1-722): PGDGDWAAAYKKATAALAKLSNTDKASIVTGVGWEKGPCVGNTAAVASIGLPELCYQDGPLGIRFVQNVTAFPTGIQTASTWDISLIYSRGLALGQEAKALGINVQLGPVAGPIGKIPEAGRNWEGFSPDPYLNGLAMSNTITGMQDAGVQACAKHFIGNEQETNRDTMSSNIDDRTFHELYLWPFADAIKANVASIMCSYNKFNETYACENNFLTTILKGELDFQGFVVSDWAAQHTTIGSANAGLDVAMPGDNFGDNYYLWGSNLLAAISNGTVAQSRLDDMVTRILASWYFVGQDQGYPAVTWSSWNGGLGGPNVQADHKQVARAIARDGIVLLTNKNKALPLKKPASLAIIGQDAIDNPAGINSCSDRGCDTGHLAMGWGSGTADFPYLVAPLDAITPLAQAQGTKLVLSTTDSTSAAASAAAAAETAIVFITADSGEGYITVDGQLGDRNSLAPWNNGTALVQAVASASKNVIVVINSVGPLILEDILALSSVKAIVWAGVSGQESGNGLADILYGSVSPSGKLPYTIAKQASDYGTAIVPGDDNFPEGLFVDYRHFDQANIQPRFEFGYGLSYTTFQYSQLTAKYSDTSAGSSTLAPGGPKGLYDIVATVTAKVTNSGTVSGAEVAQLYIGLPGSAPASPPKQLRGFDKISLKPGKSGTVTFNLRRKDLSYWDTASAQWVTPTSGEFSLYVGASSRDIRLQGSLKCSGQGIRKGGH

[3] = cellobiase assay after non-denaturing deglycosylation; settings: glycan lost; control: non-deglycosylated enzyme
purified protein = substrate: O=[N+]([O-])c1ccc(O[C@@H]2O[C@H](CO)[C@@H](O)[C@H](O)[C@H]2O)cc1; test: purified protein; settings: pH 5 (50 mM sodium acetate), 55 °C, 10 min
[4] = specific activity of purified enzyme; settings: glycan lost; control: wild type
[5] = productivity from culture supernatant activity, P. pastoris; settings: glycan lost; control: wild type

For `OC[C@H]1O[C@@H](O[C@H]2[C@H](O)[C@@H](O)C(O)O[C@@H]2CO)[C@H](O)[C@@H](O)[C@@H]1O` (stereo partly drawn) [cellobiose], the Km (D2-BGL [1]) was 2840 µM.

`OC[C@H]1OC(O)[C@H](O)[C@@H](O)[C@@H]1O` (stereo partly drawn) [glucose] gave a Ki (D2-BGL [2]) of 2420 ± 690 µM.

B1: β-glucosidase D2-BGL: Endo H (protein)
parent chain: PGDGDWAAAYKKATAALAKLSNTDKASIVTGVGWEKGPCVGNTAAVASIGLPELCYQDGPLGIRFVQNVTAFPTGIQTASTWDISLIYSRGLALGQEAKALGINVQLGPVAGPIGKIPEAGRNWEGFSPDPYLNGLAMSNTITGMQDAGVQACAKHFIGNEQETNRDTMSSNIDDRTFHELYLWPFADAIKANVASIMCSYNKFNETYACENNFLTTILKGELDFQGFVVSDWAAQHTTIGSANAGLDVAMPGDNFGDNYYLWGSNLLAAISNGTVAQSRLDDMVTRILASWYFVGQDQGYPAVTWSSWNGGLGGPNVQADHKQVARAIARDGIVLLTNKNKALPLKKPASLAIIGQDAIDNPAGINSCSDRGCDTGHLAMGWGSGTADFPYLVAPLDAITPLAQAQGTKLVLSTTDSTSAAASAAAAAETAIVFITADSGEGYITVDGQLGDRNSLAPWNNGTALVQAVASASKNVIVVINSVGPLILEDILALSSVKAIVWAGVSGQESGNGLADILYGSVSPSGKLPYTIAKQASDYGTAIVPGDDNFPEGLFVDYRHFDQANIQPRFEFGYGLSYTTFQYSQLTAKYSDTSAGSSTLAPGGPKGLYDIVATVTAKVTNSGTVSGAEVAQLYIGLPGSAPASPPKQLRGFDKISLKPGKSGTVTFNLRRKDLSYWDTASAQWVTPTSGEFSLYVGASSRDIRLQGSLKCSGQGIRKGGH
For B1, the “enzymatic_activity, other: specific activity” value (“enzymatic_activity, other” below) [3] was “no change, 185 ± 21 vs 209 ± 14”.

B2: D2-BGL (Chaetomella raphigera) (protein)
chain: PGDGDWAAAYKKATAALAKLSNTDKASIVTGVGWEKGPCVGNTAAVASIGLPELCYQDGPLGIRFVQNVTAFPTGIQTASTWDISLIYSRGLALGQEAKALGINVQLGPVAGPIGKIPEAGRNWEGFSPDPYLNGLAMSNTITGMQDAGVQACAKHFIGNEQETNRDTMSSNIDDRTFHELYLWPFADAIKANVASIMCSYNKFNETYACENNFLTTILKGELDFQGFVVSDWAAQHTTIGSANAGLDVAMPGDNFGDNYYLWGSNLLAAISNGTVAQSRLDDMVTRILASWYFVGQDQGYPAVTWSSWNGGLGGPNVQADHKQVARAIARDGIVLLTNKNKALPLKKPASLAIIGQDAIDNPAGINSCSDRGCDTGHLAMGWGSGTADFPYLVAPLDAITPLAQAQGTKLVLSTTDSTSAAASAAAAAETAIVFITADSGEGYITVDGQLGDRNSLAPWNNGTALVQAVASASKNVIVVINSVGPLILEDILALSSVKAIVWAGVSGQESGNGLADILYGSVSPSGKLPYTIAKQASDYGTAIVPGDDNFPEGLFVDYRHFDQANIQPRFEFGYGLSYTTFQYSQLTAKYSDTSAGSSTLAPGGPKGLYDIVATVTAKVTNSGTVSGAEVAQLYIGLPGSAPASPPKQLRGFDKISLKPGKSGTVTFNLRRKDLSYWDTASAQWVTPTSGEFSLYVGASSRDIRLQGSLKCSGQGIRKGGH
B2 showed a Km (purified protein) of 200 ± 100 µM and a Vmax (purified protein) of 419 µmol/min/mg.

B3: β-glucosidase D2-BGL: T431A (protein)
parent chain: PGDGDWAAAYKKATAALAKLSNTDKASIVTGVGWEKGPCVGNTAAVASIGLPELCYQDGPLGIRFVQNVTAFPTGIQTASTWDISLIYSRGLALGQEAKALGINVQLGPVAGPIGKIPEAGRNWEGFSPDPYLNGLAMSNTITGMQDAGVQACAKHFIGNEQETNRDTMSSNIDDRTFHELYLWPFADAIKANVASIMCSYNKFNETYACENNFLTTILKGELDFQGFVVSDWAAQHTTIGSANAGLDVAMPGDNFGDNYYLWGSNLLAAISNGTVAQSRLDDMVTRILASWYFVGQDQGYPAVTWSSWNGGLGGPNVQADHKQVARAIARDGIVLLTNKNKALPLKKPASLAIIGQDAIDNPAGINSCSDRGCDTGHLAMGWGSGTADFPYLVAPLDAITPLAQAQGTKLVLSTTDSTSAAASAAAAAETAIVFITADSGEGYITVDGQLGDRNSLAPWNNGTALVQAVASASKNVIVVINSVGPLILEDILALSSVKAIVWAGVSGQESGNGLADILYGSVSPSGKLPYTIAKQASDYGTAIVPGDDNFPEGLFVDYRHFDQANIQPRFEFGYGLSYTTFQYSQLTAKYSDTSAGSSTLAPGGPKGLYDIVATVTAKVTNSGTVSGAEVAQLYIGLPGSAPASPPKQLRGFDKISLKPGKSGTVTFNLRRKDLSYWDTASAQWVTPTSGEFSLYVGASSRDIRLQGSLKCSGQGIRKGGH
For B3, the “enzymatic_activity, other” value [4] was “no change, 189 ± 11 vs 197 ± 3” and the “expression_or_secretion, other: productivity” value [5] was “decreases, 3.2 vs 9.6, T431A mutant (0.61 ± 0.05 U/mL)”.

B4: β-glucosidase D2-BGL: N68Q (protein)
parent chain: PGDGDWAAAYKKATAALAKLSNTDKASIVTGVGWEKGPCVGNTAAVASIGLPELCYQDGPLGIRFVQNVTAFPTGIQTASTWDISLIYSRGLALGQEAKALGINVQLGPVAGPIGKIPEAGRNWEGFSPDPYLNGLAMSNTITGMQDAGVQACAKHFIGNEQETNRDTMSSNIDDRTFHELYLWPFADAIKANVASIMCSYNKFNETYACENNFLTTILKGELDFQGFVVSDWAAQHTTIGSANAGLDVAMPGDNFGDNYYLWGSNLLAAISNGTVAQSRLDDMVTRILASWYFVGQDQGYPAVTWSSWNGGLGGPNVQADHKQVARAIARDGIVLLTNKNKALPLKKPASLAIIGQDAIDNPAGINSCSDRGCDTGHLAMGWGSGTADFPYLVAPLDAITPLAQAQGTKLVLSTTDSTSAAASAAAAAETAIVFITADSGEGYITVDGQLGDRNSLAPWNNGTALVQAVASASKNVIVVINSVGPLILEDILALSSVKAIVWAGVSGQESGNGLADILYGSVSPSGKLPYTIAKQASDYGTAIVPGDDNFPEGLFVDYRHFDQANIQPRFEFGYGLSYTTFQYSQLTAKYSDTSAGSSTLAPGGPKGLYDIVATVTAKVTNSGTVSGAEVAQLYIGLPGSAPASPPKQLRGFDKISLKPGKSGTVTFNLRRKDLSYWDTASAQWVTPTSGEFSLYVGASSRDIRLQGSLKCSGQGIRKGGH
In the case of B4, the “enzymatic_activity, other” value [4] is reported as “no change, 216 ± 23 vs 197 ± 3” and the “expression_or_secretion, other: productivity” value [5] is reported as “decreases, 4.5 vs 9.6, N68Q mutant (0.98 ± 0.22 U/mL) ... relative to that of wild-type (1.89 ± 0.18 U/mL)”.
